Laboratory results from publication PMC7948466.

How the values were obtained:
DNMT3A full length = DNMT3A full length (Homo sapiens, UniProt Q9Y6K1 1-912); assay: fluorescence anisotropy; unlabeled H3K4me0 peptide (1-21) titrated; 50 nM DNA, 1 uM DNMT3A; FA increases; Fluorescence anisotropy (ex 485 nm, em 520 nm), 5 min incubation at room temperature; binding buffer, salt and pH not given in the material
DNMT3A full length;p53 = DNMT3A full length;p53 (Homo sapiens;Homo sapiens, UniProt Q9Y6K1;P04637 1-912;1-393, |); assay: fluorescence anisotropy; unlabeled H3K4me0 peptide titrated; 50 nM DNA, 1 uM 1:1 complex; FA increases; Fluorescence anisotropy (ex 485 nm, em 520 nm), 5 min incubation at room temperature; binding buffer, salt and pH not given in the material
DNMT3A full length;TDG = DNMT3A full length;TDG (Homo sapiens;Homo sapiens, UniProt Q9Y6K1;Q13569 1-912;1-410, |); assay: as above

Measured: binding result

DNMT3A full length;TDG, sequence (Q9Y6K1 whole entry, chain 1 of 2): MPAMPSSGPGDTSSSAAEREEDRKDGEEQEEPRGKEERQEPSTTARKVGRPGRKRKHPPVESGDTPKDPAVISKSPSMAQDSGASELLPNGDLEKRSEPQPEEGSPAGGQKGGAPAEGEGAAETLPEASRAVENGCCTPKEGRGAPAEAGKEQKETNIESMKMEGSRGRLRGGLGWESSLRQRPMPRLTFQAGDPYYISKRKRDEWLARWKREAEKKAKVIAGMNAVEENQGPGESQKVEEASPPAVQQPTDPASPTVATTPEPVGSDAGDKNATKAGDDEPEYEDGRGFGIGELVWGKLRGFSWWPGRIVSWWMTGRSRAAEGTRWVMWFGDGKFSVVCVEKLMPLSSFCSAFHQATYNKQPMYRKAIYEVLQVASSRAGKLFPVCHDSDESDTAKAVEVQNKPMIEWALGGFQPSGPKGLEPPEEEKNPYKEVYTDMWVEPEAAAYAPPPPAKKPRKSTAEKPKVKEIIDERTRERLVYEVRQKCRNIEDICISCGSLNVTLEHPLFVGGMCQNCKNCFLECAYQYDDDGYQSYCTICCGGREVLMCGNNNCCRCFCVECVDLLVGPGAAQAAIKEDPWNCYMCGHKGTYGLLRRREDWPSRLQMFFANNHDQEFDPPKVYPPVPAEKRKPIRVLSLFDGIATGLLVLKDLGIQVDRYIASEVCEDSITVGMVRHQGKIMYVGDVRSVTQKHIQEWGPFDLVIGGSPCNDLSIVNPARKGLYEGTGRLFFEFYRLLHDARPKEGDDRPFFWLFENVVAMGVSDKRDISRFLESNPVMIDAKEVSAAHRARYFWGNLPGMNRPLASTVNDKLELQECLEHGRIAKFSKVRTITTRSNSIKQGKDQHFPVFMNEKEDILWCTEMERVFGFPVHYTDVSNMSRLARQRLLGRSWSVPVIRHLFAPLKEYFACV
DNMT3A full length;TDG, sequence (Q13569 whole entry, chain 2 of 2): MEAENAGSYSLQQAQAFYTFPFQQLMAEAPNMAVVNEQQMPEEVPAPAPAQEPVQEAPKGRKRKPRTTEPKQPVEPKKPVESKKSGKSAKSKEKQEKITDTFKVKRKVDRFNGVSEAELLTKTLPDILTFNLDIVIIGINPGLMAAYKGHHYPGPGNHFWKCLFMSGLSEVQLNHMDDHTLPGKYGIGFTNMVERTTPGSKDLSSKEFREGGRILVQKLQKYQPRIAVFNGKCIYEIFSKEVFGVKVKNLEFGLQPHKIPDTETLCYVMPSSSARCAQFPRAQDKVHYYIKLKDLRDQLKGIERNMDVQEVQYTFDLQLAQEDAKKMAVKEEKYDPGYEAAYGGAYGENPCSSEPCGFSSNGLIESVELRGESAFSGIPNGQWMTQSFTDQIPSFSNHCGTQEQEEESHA
DNMT3A full length, sequence (Q9Y6K1 whole entry): as the sequence (Q9Y6K1 whole entry, chain 1 of 2) above

B1: GCbox30 (dsDNA)
DNA 1: TGGATATCTAGGGGCGCTATGATATCT
DNA 2: AGATATCATAGCGCCCCTAGATATCCA
binds: DNMT3A full length | DNMT3A full length;p53 | DNMT3A full length;TDG
